Test results: PMC6555819, “Comprehensive study of nuclear receptor DNA binding provides a revised framework for understanding receptor specificity”

B1: NRC3_wobSeed88_DR3_o1 (dsDNA)
DNA 1: GCTAGCCTAGGTCATGCGGGCCAGTATAGTGTCGGCGCGATTGACAGCGTAGAATGAAGG
DNA 2: CCTTCATTCTACGCTGTCAATCGCGCCGACACTATACTGGCCCGCATGACCTAGGCTAGC
B2: NRC3_wobSeed61_DR2_G10C_o1 (dsDNA)
DNA 1: GCCGTCCAACGTCAGCAGGTCAGTGAAAGCGACGTGGCGATTGACAGCGTAGAATGAAGG
DNA 2: CCTTCATTCTACGCTGTCAATCGCCACGTCGCTTTCACTGACCTGCTGACGTTGGACGGC
B3: NRC3_random_hg19_21_o1 (dsDNA)
DNA 1: GCAACATTTCAGTATACTTTCTAGCAACTCTGGGTAGCGATTGACAGCGTAGAATGAAGG
DNA 2: CCTTCATTCTACGCTGTCAATCGCTACCCAGAGTTGCTAGAAAGTATACTGAAATGTTGC
B4: NRC3_random_hg19_95_o1 (dsDNA)
DNA 1: GCATCTTCAGTATGTTTCATTCAGTAGCTCAGTGGCGCGATTGACAGCGTAGAATGAAGG
DNA 2: CCTTCATTCTACGCTGTCAATCGCGCCACTGAGCTACTGAATGAAACATACTGAAGATGC
B5: NRC3_random_hg19_365_o1 (dsDNA)
DNA 1: GCAGTAGACACAGGGTTTCACCGTGTTGGCCAGGATGCGATTGACAGCGTAGAATGAAGG
DNA 2: CCTTCATTCTACGCTGTCAATCGCATCCTGGCCAACACGGTGAAACCCTGTGTCTACTGC
B6: NRC3_random_hg19_89_o1 (dsDNA)
DNA 1: GCCAAGATGAATCAGAAGCATGCCATCCGAATTCCAGCGATTGACAGCGTAGAATGAAGG
DNA 2: CCTTCATTCTACGCTGTCAATCGCTGGAATTCGGATGGCATGCTTCTGATTCATCTTGGC
B7: NRC3_random_hg19_498_o1 (dsDNA)
DNA 1: GCGACCACAGGTATAGTGTGCTGGACTATGTTCCAGGCGATTGACAGCGTAGAATGAAGG
DNA 2: CCTTCATTCTACGCTGTCAATCGCCTGGAACATAGTCCAGCACACTATACCTGTGGTCGC
B8: NRC3_random_hg19_236_o1 (dsDNA)
DNA 1: GCGCCTAGCACTTGTGTTGACCATTCATTCAGTGCTGCGATTGACAGCGTAGAATGAAGG
DNA 2: CCTTCATTCTACGCTGTCAATCGCAGCACTGAATGAATGGTCAACACAAGTGCTAGGCGC
B9: NRC3_random_hg19_160_o1 (dsDNA)
DNA 1: GCATCCCTGCAATGGCCTGCAAAGTTACAGGTTGCAGCGATTGACAGCGTAGAATGAAGG
DNA 2: CCTTCATTCTACGCTGTCAATCGCTGCAACCTGTAACTTTGCAGGCCATTGCAGGGATGC
B10: NRC3_random_hg19_34_o1 (dsDNA)
DNA 1: GCATGATGCCTCCTTGGAGAAGTCCTGCATTCATCCGCGATTGACAGCGTAGAATGAAGG
DNA 2: CCTTCATTCTACGCTGTCAATCGCGGATGAATGCAGGACTTCTCCAAGGAGGCATCATGC
B11: NRC3_random_hg19_366_o1 (dsDNA)
DNA 1: GCACTACTACTGCTGTTGAGAAACCTGCATTGTGGCGCGATTGACAGCGTAGAATGAAGG
DNA 2: CCTTCATTCTACGCTGTCAATCGCGCCACAATGCAGGTTTCTCAACAGCAGTAGTAGTGC
B12: NRC3_random_hg19_376_o1 (dsDNA)
DNA 1: GCTTCCTCTTCCTCTGTGCCTGTGTAGCCTCCATCCGCGATTGACAGCGTAGAATGAAGG
DNA 2: CCTTCATTCTACGCTGTCAATCGCGGATGGAGGCTACACAGGCACAGAGGAAGAGGAAGC
B13: NRC3_random_hg19_79_o1 (dsDNA)
DNA 1: GCCAGTGTCCTCCTGAGAATTGGTTGTGTTGGGCAGGCGATTGACAGCGTAGAATGAAGG
DNA 2: CCTTCATTCTACGCTGTCAATCGCCTGCCCAACACAACCAATTCTCAGGAGGACACTGGC

What was measured:
PPARa:RXRa = PPARa:RXRa (Homo sapiens, UniProt Q07869;P19793 full;full); test: no ligand; PBM; 270 nM : 90 nM RXRa; PBS pH 7.4, 2% milk, 0.02% Triton X-100, 1 mM DTT, BSA, 0.4 mg/ml salmon testes DNA; details: tags: GST kept;His cleaved; copies: 1;1; label: surface-attached array probe
In short: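 For binding z-scores, the reference was random background probes on custom Agilent 4×180K protein-binding microarrays. These arrays were incubated 1 h with ligand-free nuclear receptor dimers in PBS pH 7.4, 2% milk, 0.02% Triton X-100, 1 mM DTT, 0.2 mg/mL BSA and 0.4 mg/ml salmon testes DNA. Fluorescence was scanned after antibody detection of each partner (one per run) and regression-normalized.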

RXRa = RXRa (Homo sapiens, UniProt P19793); test: no ligand; PBM; 180 nM; PBS pH 7.4, 2% milk, 0.02% Triton X-100, 1 mM DTT, BSA, 0.4 mg/ml salmon testes DNA; details: tags: His cleaved; chain copies: 2; label: surface-attached array probe
Sequence of RXRa (P19793 whole entry): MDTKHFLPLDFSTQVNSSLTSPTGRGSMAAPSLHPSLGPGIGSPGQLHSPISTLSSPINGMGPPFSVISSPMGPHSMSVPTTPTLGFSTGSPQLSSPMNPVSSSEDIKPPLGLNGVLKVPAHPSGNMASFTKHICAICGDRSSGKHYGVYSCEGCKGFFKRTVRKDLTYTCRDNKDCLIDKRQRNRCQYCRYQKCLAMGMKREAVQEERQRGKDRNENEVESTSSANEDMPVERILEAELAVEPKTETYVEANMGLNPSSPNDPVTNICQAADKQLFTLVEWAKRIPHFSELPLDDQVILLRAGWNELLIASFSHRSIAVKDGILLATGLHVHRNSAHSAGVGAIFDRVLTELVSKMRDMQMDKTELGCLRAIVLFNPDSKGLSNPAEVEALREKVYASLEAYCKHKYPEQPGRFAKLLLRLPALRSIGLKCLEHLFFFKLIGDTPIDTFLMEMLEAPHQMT

Sequence of PPARa:RXRa (Q07869 whole entry, chain 1 of 2): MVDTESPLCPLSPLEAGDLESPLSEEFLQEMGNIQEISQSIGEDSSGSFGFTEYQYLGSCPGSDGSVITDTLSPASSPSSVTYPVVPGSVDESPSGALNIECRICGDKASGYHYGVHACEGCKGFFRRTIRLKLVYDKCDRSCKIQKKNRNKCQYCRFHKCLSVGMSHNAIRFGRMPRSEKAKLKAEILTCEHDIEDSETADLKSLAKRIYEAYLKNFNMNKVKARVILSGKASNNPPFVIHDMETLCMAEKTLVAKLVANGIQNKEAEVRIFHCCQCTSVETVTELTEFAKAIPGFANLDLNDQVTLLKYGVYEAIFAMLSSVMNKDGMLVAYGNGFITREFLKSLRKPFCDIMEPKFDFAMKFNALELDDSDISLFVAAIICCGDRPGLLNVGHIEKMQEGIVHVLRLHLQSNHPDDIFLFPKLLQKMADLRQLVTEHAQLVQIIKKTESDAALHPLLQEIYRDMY
Sequence of PPARa:RXRa (P19793 whole entry, chain 2 of 2): as the sequence (P19793 whole entry) above

| Binder | binding signal (PPARa:RXRa) | binding signal (RXRa) |
| --- | --- | --- |
| B1 | 3.33 PBM z-score against 500 random probes | 3.04 PBM z-score against 500 random probes |
| B2 | 0.49 PBM z-score against 500 random probes | 0.42 PBM z-score against 500 random probes |
| B3 | 0.2 PBM z-score against 500 random probes | 0.34 PBM z-score against 500 random probes |
| B4 | -0.24 PBM z-score against 500 random probes | -0.26 PBM z-score against 500 random probes |
| B5 |  | 0.03 PBM z-score against 500 random probes |
| B6 |  | -0 PBM z-score against 500 random probes |
| B7 |  | -0.31 PBM z-score against 500 random probes |
| B8 |  | -0.35 PBM z-score against 500 random probes |
| B9 |  | -0.41 PBM z-score against 500 random probes |
| B10 |  | -0.46 PBM z-score against 500 random probes |
| B11 |  | -0.56 PBM z-score against 500 random probes |
| B12 |  | -0.77 PBM z-score against 500 random probes |
| B13 |  | -0.79 PBM z-score against 500 random probes |
